This is an account of results in article PMC5662892.

For the series, the system named is ORC-Qdot705 (Orc1-6) (budding yeast). As to the kind of experiment: single-molecule TIRFM. The note with it: RPA: 20 mM Tris pH 7.5, 50 mM NaCl, 2 mM EDTA, 0.2 mg/ml BSA, ORC: 25 mM HEPES pH 7.6, 12 mM MgOAc, 50 uM ZnOAc, 1 mM DTT, 225 mM KGlut, 3 mM ATP.

Turning to lambda-ARS1, the binding signal (% of binding positions at ARS1 site) was 12.8.
